Values joined by “and” are separate entries in the source; they are usually repeats but may differ in a detail not shown here. Identical values can stand only once. Like-named read-outs stand apart in the source and are kept apart here. Each block holds one substance with its values, some of them ahead of it.
Tests used:
C3b = C3b (UniProt P01024); assay: SPR
C3b C3b (Homo sapiens) [1] = target: C3b C3b (Homo sapiens) (UniProt P01024); conditions: cited from earlier work
C3b C3b (Homo sapiens) [2] = target: C3b C3b (Homo sapiens) (UniProt P01024); conditions: cited from earlier work; remark: listed apart in the source

Chain of C3b C3b (Homo sapiens) (P01024 566-670): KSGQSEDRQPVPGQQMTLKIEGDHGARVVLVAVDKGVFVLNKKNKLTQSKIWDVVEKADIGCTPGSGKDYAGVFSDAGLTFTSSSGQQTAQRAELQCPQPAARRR

Substance: Factor H (from UniProt P08603 19-1231) (natural protein)
- Kd (C3b): 0.647 µM

Substance: Factor H CCPs 1-4 (from UniProt P08603)
- Kd (C3b C3b (Homo sapiens) [1]): 11 µM and 14 µM

Substance: Factor H CCPs 19-20 (from UniProt P08603)
- Kd (C3b C3b (Homo sapiens) [2]): 5.4 µM and 4 µM

Now from value to substance:

- KD1 (1:2 binding model, first of two independent sites) (C3b): 1.7 µM
- KD2 (1:2 binding model, second of two independent sites) (C3b): 5.6 µM
Substance: FHΔ10–15

- Kd (C3b): 1.52 µM
Substance: Factor H-like protein 1 (natural protein)
